For orientation: EC50 (read off the curve) means the concentration at which the effect is half-maximal. The low end stands for greater potency, the high end for weaker potency. What is called EC50 is the concentration that produces a half-maximal response. A low value points to an effect from little substance.

Results on four molecules are retold here after patent US20240190939A1 (SHATTUCK LABS, published 2024).

One assay deals with T1, CD47-His.
T1 construct: ELISA capture protein used with both murine and human chimeras
Put plainly: ELISA: CD47-His capture, IgG detection. On the technique in general: An ELISA detects its analyte on a solid surface through an enzyme-linked reagent.

Assay [1] has as its target T2, mouse CD47 on CHO-K1 cells (mouse, UniProt Q61735 19-303).
T2 construct: whole, on cells; also called mCD47 engineered cell line; mCD47 over-expressing cell line
T2 sequence (looked up): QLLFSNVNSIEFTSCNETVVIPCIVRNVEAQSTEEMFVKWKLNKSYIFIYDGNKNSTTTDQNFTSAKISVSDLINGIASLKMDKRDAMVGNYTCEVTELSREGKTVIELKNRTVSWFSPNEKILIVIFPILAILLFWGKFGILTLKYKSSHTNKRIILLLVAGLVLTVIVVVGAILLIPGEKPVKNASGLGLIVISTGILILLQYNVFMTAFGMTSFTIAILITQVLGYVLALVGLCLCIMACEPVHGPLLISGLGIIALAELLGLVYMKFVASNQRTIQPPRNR
In words: flow cytometry on CHO-K1 cells expressing murine CD47.

The target of assay [2] is T3, mouse PVR on CHO-K1 cells (mouse).
T3 construct: whole, on cells; also called CHOK1/PVR; mPVR engineered cell line
Put plainly: flow cytometry on CHOK1/PVR cells.

For assay [3], the target named is T4, mouse OX40 on CHO-K1 cells (mouse, UniProt P47741 20-272).
T4 construct: whole, on cells; also called CHOK1-mOX40
T4 sequence (looked up): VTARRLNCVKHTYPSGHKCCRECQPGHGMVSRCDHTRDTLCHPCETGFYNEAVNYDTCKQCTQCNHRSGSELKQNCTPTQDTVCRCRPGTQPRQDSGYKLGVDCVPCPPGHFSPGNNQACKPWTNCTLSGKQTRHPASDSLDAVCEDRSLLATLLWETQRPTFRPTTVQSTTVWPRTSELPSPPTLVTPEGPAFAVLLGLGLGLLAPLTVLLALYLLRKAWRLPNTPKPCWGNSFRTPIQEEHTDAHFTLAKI
In words: flow cytometry on CHOK1-mOX40 cells. For orientation: In flow cytometry, cells or beads pass a laser one at a time.

The target of another assay is T5, CD155PVR-His.
T5 construct: ELISA capture protein used with both murine and human chimeras; also called CD155-His
Put plainly: ELISA: 'CD115/PVR Capture' as printed (legend: CD155PVR-His), Fc-HRP detection.

The target of a further assay is T6, OX40-Fc.
T6 construct: Capture protein of the dual ELISA
In words: Dual ELISA: OX40-Fc capture, CD155-His detection, 6X His HRP (signal needs both OX40-Fc and CD155-His bound).

For another assay, the target named is T7, NECTIN4 (human, UniProt Q96NY8).
T7 construct: on the microarray of human membrane proteins; also called Nectin Cell Adhesion Molecule 4
T7 sequence (looked up): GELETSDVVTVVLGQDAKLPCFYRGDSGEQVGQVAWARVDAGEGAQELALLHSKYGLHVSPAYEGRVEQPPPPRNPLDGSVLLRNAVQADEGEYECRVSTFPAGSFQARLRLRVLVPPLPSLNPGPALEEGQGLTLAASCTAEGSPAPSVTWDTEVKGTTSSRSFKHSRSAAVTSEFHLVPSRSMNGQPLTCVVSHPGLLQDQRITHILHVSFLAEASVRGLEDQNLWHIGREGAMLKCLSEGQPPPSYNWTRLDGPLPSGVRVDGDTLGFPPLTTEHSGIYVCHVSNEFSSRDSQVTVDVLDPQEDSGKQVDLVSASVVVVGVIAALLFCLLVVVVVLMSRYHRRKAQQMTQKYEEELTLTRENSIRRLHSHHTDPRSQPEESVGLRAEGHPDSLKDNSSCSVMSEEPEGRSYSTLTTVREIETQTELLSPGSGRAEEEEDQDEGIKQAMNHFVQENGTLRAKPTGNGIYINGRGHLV
Put plainly: microarray of about 6,000 human membrane proteins.

A further assay has as its target T8, PVR (human, UniProt P15151).
T8 construct: on the microarray of human membrane proteins; also called Poliovirus Receptor
T8 sequence (looked up): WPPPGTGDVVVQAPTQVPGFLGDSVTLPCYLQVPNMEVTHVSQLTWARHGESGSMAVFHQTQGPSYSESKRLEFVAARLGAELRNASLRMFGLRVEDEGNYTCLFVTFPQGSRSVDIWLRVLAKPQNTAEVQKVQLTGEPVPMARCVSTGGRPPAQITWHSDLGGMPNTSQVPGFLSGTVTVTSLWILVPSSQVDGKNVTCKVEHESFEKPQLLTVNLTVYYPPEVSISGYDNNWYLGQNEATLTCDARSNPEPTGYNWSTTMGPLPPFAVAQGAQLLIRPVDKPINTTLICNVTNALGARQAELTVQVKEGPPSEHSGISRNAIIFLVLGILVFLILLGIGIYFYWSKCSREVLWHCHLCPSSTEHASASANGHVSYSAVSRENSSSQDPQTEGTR
Put plainly: microarray of about 6,000 human membrane proteins.

A further assay addresses T9, TNFRSF4.
T9 construct: also called TNF Receptor Superfamily Member 4
T9 chain: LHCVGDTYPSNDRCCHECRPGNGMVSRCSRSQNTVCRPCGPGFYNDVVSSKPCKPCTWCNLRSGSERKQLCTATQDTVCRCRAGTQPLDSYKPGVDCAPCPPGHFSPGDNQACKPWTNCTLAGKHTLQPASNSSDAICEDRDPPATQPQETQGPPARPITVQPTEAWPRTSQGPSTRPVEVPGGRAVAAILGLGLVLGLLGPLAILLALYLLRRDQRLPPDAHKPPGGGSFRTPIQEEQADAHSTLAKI
In words: microarray of about 6,000 human membrane proteins.

The next assay has as its target Galectin-1 (human, UniProt P09382 2-135, limits assumed). In words: microarray of about 6,000 human membrane proteins.
The target in assay [4] is T10, recombinant human CD155PVR (human, UniProt P15151 21-343, limits assumed).
T10 sequence (looked up): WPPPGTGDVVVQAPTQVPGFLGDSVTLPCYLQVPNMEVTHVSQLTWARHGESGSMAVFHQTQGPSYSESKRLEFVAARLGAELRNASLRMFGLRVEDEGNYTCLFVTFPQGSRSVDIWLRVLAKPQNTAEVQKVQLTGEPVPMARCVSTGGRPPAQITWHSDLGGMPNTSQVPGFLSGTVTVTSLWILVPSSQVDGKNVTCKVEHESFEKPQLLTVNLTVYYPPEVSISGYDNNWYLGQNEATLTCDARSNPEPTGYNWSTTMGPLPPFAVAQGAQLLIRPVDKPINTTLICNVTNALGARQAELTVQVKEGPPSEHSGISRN
In words: biolayer interferometry (Octet), hPVR; concentration not given.

Assay [5] has as its target T11, hCD155-Fc (human, UniProt P15151 21-343, limits assumed).
T11 construct: not shown: Fc, not identified
T11 sequence (looked up): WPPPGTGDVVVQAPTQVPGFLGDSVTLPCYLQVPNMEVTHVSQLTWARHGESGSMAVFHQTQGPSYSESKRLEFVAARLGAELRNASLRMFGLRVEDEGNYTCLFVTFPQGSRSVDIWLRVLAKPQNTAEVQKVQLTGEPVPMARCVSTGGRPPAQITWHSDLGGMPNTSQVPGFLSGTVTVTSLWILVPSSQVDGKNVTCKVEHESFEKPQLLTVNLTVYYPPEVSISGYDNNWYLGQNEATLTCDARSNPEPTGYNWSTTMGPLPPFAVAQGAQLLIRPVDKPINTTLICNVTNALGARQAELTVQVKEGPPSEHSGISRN
Put plainly: ELISA as printed: CD155-Fc capture, goat anti-hOX40L detection, anti-goat HRP (legend says CD155PVR-His capture, IgG detection).

A further assay concerns the target recombinant human LTbR (human, UniProt P36941 31-227, limits assumed). Put plainly: biolayer interferometry (Octet), human LTbR.
In the next assay the target is T12, human LTBR-His (human, UniProt P36941 31-227, limits assumed).
T12 construct: also called hLTBR-His
T12 sequence (P36941 31-227 limits assumed): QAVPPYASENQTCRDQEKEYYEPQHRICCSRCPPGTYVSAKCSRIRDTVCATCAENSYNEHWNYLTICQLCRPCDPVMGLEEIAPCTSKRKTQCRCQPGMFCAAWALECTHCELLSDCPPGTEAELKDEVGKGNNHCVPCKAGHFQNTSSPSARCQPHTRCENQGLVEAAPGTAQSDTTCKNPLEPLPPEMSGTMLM
In words: Dual ELISA: hCD155-Fc capture, hLTBR-His detection, 6x His HRP.

The target of assay [6] is T11, hCD155-Fc. The description is as above.

Sequence of recombinant human LTbR (P36941 31-227 limits assumed): as above
Sequence of Galectin-1 (P09382 2-135 limits assumed): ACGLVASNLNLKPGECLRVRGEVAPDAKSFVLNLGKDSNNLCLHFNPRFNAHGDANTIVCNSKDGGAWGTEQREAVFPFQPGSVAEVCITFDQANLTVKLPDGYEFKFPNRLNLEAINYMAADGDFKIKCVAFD

B1: murine CD172a(SIRPα)-Fc-LIGHT chimeric protein (Fc fusion)
chain 1: KELKVTQPEKSVSVAAGDSTVLNCTLTSLLPVGPIRWYRGVGPSRLLIYSFAGEYVPRIRNVSDTTKRNNMDFSIRISNVTPADAGIYYCVKFQKGSSEPDTEIQSGGGTEVYVLAKPSPPEVSGPADRGIPDQKVNFTCKSHGFSPRNITLKWFKDGQELHPLETTVNPSGKNVSYNISSTVRVVLNSMDVNSKVICEVAHITLDRSPLRGIANLSNFIRVSPTVKVTQQSPTSMNQVNLTCRAERFYPEDLQLIWLENGNVSRNDTPKNLTKNTDGTYNYTSLFLVNSSAHREDVVFTCQVKHDQQPAITRNHTVLGFAHSSDQGSMQTFPDNNATHNWN
chain 2: LHQRLGDIVAHLPDGGKGSWEKLIQDQRSHQANPAAHLTGANASLIGIGGPLLWETRLGLAFLRGLTYHDGALVTMEPGYYYVYSKVQLSGVGCPQGLANGLPITHGLYKRTSRYPKELELLVSRRSPCGRANSSRVWWDSSFLGGVVHLEAGEEVVVRVPGNRLVRPRDGTRSYFGAFMV
As to B1, the half-maximal effective concentration (EC50 (read off the curve)) with CD47-His was about 4 nM. In assay [1], this molecule yielded an EC50 of 18 nM.

B2: murine TIGIT-Fc-OX40L chimeric protein (Fc fusion)
chain 1: TIDTKRNISAEEGGSVILQCHFSSDTAEVTQVDWKQQDQLLAIYSVDLGWHVASVFSDRVVPGPSLGLTFQSLTMNDTGEYFCTYHTYPGGIYKGRIFLKVQESSDDRNGLAQFQTAPLG
chain 2: SSSPAKDPPIQRLRGAVTRCEDGQLFISSYKNEYQTMEVQNNSVVIKCDGLYIIYLKGSFFQEVKIDLHFREDHNPISIPMLNDGRRIVFTVVASLAFKDKVYLTVNAPDTLCEHLQINDGELIVVQLTPGYCAPEGSYHSTVNQVPL
For B2, the EC50 in assay [2] was 4.63 nM; in assay [3], 1.7 nM. The “EC50 (read off the curve)” value in the assay with CD155PVR-His was about 4 nM; with OX40-Fc it was about 8 nM.

B3: human TIGIT-Fc-OX40L chimeric protein (Fc fusion)
chain: MMTGTIETTGNISAEKGGSIILQCHLSSTTAQVTQVNWEQQDQLLAICNADLGWHISPSFKDRVAPGPGLGLTLQSLTVNDTGEYFCIYHTYPDGTYTGRIFLEVLESSVAEHGARFQIPSKYGPPCPPCPAPEFLGGPSVFLFPPKPKDQLMISRTPEVTCVVVDVSQEDPEVQFNWYVDGVEVHNAKTKPREEQFNSTYRVVSVLTVLHQDWLSGKEYKCKVSSKGLPSSIEKTISNATGQPREPQVYTLPPSQEEMTKNQVSLTCLVKGFYPSDIAVEWESNGQPENNYKTTPPVLDSDGSFFLYSRLTVDKSRWQEGNVFSCSVLHEALHNHYTQKSLSLSLGKIEGRMDQVSHRYPRIQSIKVQFTEYKKEKGFILTSQKEDEIMKVQNNSVIINCDGFYLISLKGYFSQEVNISLHYQKDEEPLFQLKKVRSVNSLMVASLTYKDKVYLNVTTDNTSLDDFHVNGGELILIHQNPGEFCVL
notes: also called hTIGIT-Fc-OX40L
Consider B3, for which the binding result (with NECTIN4; with PVR; in the assay with TNFRSF4; with Galectin-1; in assay [4]; in the assay with hCD155-Fc [5]) was “binds” in each case.

B4: human TIGIT-Fc-LIGHT chimeric protein (Fc fusion)
chain: MMTGTIETTGNISAEKGGSIILQCHLSSTTAQVTQVNWEQQDQLLAICNADLGWHISPSFKDRVAPGPGLGLTLQSLTVNDTGEYFCIYHTYPDGTYTGRIFLEVLESSVAEHGARFQIPSKYGPPCPPCPAPEFLGGPSVFLFPPKPKDQLMISRTPEVTCVVVDVSQEDPEVQFNWYVDGVEVHNAKTKPREEQFNSTYRVVSVLTVLHQDWLSGKEYKCKVSSKGLPSSIEKTISNATGQPREPQVYTLPPSQEEMTKNQVSLTCLVKGFYPSDIAVEWESNGQPENNYKTTPPVLDSDGSFFLYSRLTVDKSRWQEGNVFSCSVLHEALHNHYTQKSLSLSLGKIEGRMDLQLHWRLGEMVTRLPDGPAGSWEQLIQERRSHEVNPAAHLTGANSSLTGSGGPLLWETQLGLAFLRGLSYHDGALVVTKAGYYYIYSKVQLGGVGCPLGLASTITHGLYKRTPRYPEELELLVSQQSPCGRATSSSRVWWDSSFLGGVVHLEAGEKVVVRVLDERLVRLRDGTRSYFGAFMV
notes: also called hTIGIT-Fc-LIGHT; hTIGIT-1-Fc-LIGHT
As to B4, the binding result (with recombinant human LTbR; with human LTBR-His; with hCD155-Fc [6]; in assay [4]) was “binds” each time.
